Experimental findings from US10202593B2, “Evolved sortases and uses thereof” (President and Fellows of Harvard College, priority 2013, dated 2019) are described below.

This experiment concerns the target T1, fetuin A in human plasma (Homo sapiens, UniProt P02765).
T1 construct: site-specific modification of endogenous fetuin A in human plasma; tissue VWR 89347-902; host or cells: normal human plasma
T1 sequence (P02765 19-367): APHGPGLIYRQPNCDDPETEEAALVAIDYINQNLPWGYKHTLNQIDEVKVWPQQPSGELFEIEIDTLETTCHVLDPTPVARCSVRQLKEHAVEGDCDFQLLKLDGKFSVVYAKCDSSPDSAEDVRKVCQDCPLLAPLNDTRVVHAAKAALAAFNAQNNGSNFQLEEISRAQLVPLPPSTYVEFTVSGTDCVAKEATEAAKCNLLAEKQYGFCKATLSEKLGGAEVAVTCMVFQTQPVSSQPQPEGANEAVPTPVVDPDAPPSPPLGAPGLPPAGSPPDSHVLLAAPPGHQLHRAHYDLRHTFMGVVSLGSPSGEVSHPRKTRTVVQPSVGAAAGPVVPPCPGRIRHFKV
The experiment is described as follows: Plasma labeling of fetuin A with GGGK(biotin). Type of experiment: biochemical. The note with it: for overall conjugation efficiency in human plasma (fetuin A, densitometry): 2 hours, room temperature. On the procedure:
FIG. 21A-D show applications of evolved sortases. (A) N- and C-terminal labeling of fibroblast growth factors FGF1 and FGF2. Tandem SUMO-TEV cleavage site-FGF1/2-LPESG-His6 (SEQ ID NO: 27) constructs were treated with eSrtA(4S-9) in the presence of GGG-PEG, then with eSrtA(2A-9) and TEV protease in the presence of Alexa Fluor750-LAETGG (SEQ ID NO: 35) and purified to afford the final conjugates in up to 20% yield (Table 3). The crude reactions were analyzed by SDS-PAGE and scanned for fluorescence at 700 nm. (B) Surface functionalization using eSrtA(2A-9) and eSrtA(4S-9). 96-well plates coated with GGG-PEG (5 kDa) were incubated with enzyme and Alexa Flur 488-LAETG (SEQ ID NO: 5; green) or Alexa Fluor 647-LPESG (SEQ ID NO: 3; red) for 2 hours, then washed three times. The total fluorescence of the resulting surfaces was measured at 488 nm or 647 nm, then normalized to the fluorescent intensities obtained from the samples containing eSrtA(2A-9)+488-LAETG (SEQ ID NO: 5) or eSrt(4S-9)+647-LPESG (SEQ ID NO: 3). (C, D) Treatment of human plasma with evolved SrtA variants for 2 hours at room temperature in the presence of GGGK(biotin) (SEQ ID NO: 22) with or without 10 mM CaCl2. […] Biotin capture and mass spectrometry identified this protein as fetuin A, confirmed by subsequent Western blot (D).
Normal human plasma was purchased from VWR (part number 89347-902) and stored at −20° C. For all reactions, an aliquot was thawed at 37° C. for 15 minutes, then vortexed to resuspend any coagulated material. To this sample was added 2 μL of 0.1 M GGGK(biotin) (SEQ ID NO: 22) for analytical reactions. Higher concentrations of GGGK(biotin) (SEQ ID NO: 22) were avoided for analytical purposes, as they caused increased background in downstream Western blotting. 10 μL of 1 M CaCl2 was added in cases of calcium supplementation. Reactions were initiated by the addition of 10 μL of 100 μM eSrtA, eSrtA(2A-9), or eSrtA(4S-9) and incubated at room temperature for 2 hours. Reactions were quenched by 10:1 dilution into SDS-PAGE loading buffer, followed by a 10 minute incubation at 95° C. These samples were then run on 4-12% Bis-Tris PAGE gels, blotted to PVDF membrane using the iBlot2 dry blotting system, blocked with Pierce Superblock buffer for 1 hour followed by incubation with 1:500 dilutions of Abcam α-Fetuin A antibody (MM0273-6M23) in Superblock buffer with 0.1% Tween-20 for 1 hour. The blot was then washed 3 times with PBS+0.1% Tween-20, then incubated again in 1:15,000 LiCor goat antimouse 680+1:15,000 Licor Streptavidin-800 in Superblock buffer with 0.1% Tween and 0.01% SDS added for 45 minutes. The blot was then washed 3 times with PBS+0.1% Tween and visualized on an Odyssey IR imager.
As in analytical labeling of Fetuin A, 1 mL of normal human plasma was combined with 10 μL 1M CaCl2, 10 μL of 0.1M GGGK(Biotin) (SEQ ID NO: 22), and 10 μL of 100 μM eSrtA(4S-9), then incubated at room temperature for 2 hours. 100 μL of pre-equilibrated Ni-NTA resin slurry and 12.5 μL 0.4M H2N-LPESGG (SEQ ID NO: 38) peptide was added to the mixture to act as a competitive inhibitor for thioester formation. The mixture was incubated at room temperature with shaking for 15 minutes, then filtered through a 0.2 μm spin filter before dilution to 10 mL final volume in PBS+1 mM EDTA+100 μM H2N-LPESGG (SEQ ID NO: 38) (PBS-EL). The solution was concentrated using a 10 kDa molecular weight cutoff spin concentrator for 20 minutes at 3500×g and a final volume of <1 mL. […]

The mark [1] stands for this setting: presence of supplemental calcium (10 mM CaCl2).

Positions count from the first letter of the chain named. Numbers in names are those of the source.

B1: eSrtA (protein)
chain: QAKPQIPKDKSKVAGYIEIPDADIKEPVYPGPATREQLNRGVSFAEENESLDDQNISIAGHTFIDRPNYQFTNLKAAKKGSMVYFKVGNETRKYKMTSIRNVKPTAVEVLDEQKGKDKQLTLITCDDYNEETGVWETRKIFVATEVK
Consider B1, for which the “fetuin A conjugation efficiency lower than that of eSrtA(4S-9)” value (10 mM added CaCl2) is listed as 90 fold. Moreover, the “overall conjugation efficiency in human plasma (fetuin A, densitometry)” value under setting [1] was 0.6%. For the same molecule, for the setting “without supplemental calcium”, the “processing of fetuin A” value is given as “no processing”.

B2: eSrtA(4S-9): P94R, N98D, S102C, A104V, A118T, F122A, K134R, F144L, D160N, D165A, I182V, E189F, K190E, K196T (protein)
chain: B1 chain with N39D, S43C, A45V, A59T, F63A, K75R, F85L, I123V, E130F
Consider B2, for which the “overall conjugation efficiency in human plasma (fetuin A, densitometry)” value reads like this: (absence of supplemental calcium) 1.8%; under setting [1], 57.6%.
